According to patent US20060247420A1, “Immune cell recptor ligand and immune cell receptor” (priority 2002, published 2006):

Experiments:
Type in all cases: cell-based, human
[1] = system: SKOV3 chemoresistant ovarian carcinoma cells; experiment: NK cell cytotoxicity against Letal+ or control SKOV3 cells, 51Cr release; conditions: IL-15 activated NK cells; Letal^+ versus control SKOV3
Protocol: GPI-specific phospholipase-C treatment, ^51Cr release and apoptosis assay. Letal^+ and Letal^− A2780 cells were treated with 2 U/ml GPI-specific phospholipase-C (Sigma) at 37° C. for 1 hr. A standard ^51Cr-release assay was performed using 8,000 ^51Cr-labeled targets/well.
For analysis of the NK-dependent anti-tumor immune response, the cytotoxicity of NK cells against Letal^+ or control SKOV3 chemoresistant ovarian carcinoma cells was compared.

[2] = system: glucose transporter Glut-1 in peripheral CD8^+ T-cells; experiment: Glut-1 expression in stimulated CD8+ T-cells, flow cytometry; conditions: 20 hr stimulation
Description: CD8^+ lymphocyte stimulation, cytokine release and glucose metabolism analysis. To analyze the effects of Letal on the T-cell proliferation and production of cytokines, a previously described artificial antigen-presenting cell (aAPC) model was used (Maus et al, Nat. Biotechnol. 20:143-148 (2002)). Briefly, the system is based on the stable expression of the human low-affinity Fcγ receptor, CD32, on K562 cells (K32 cell line). K32 cell-based aAPCs were additionally transduced with Letal or with the empty vector as described above, irradiated with 100Gy, and washed twice with RPMI medium. […] Cultures were pulsed with 1 μCi of [^3H] thymidine from day 2 to day 5 and incorporated radioactivity was determined using a 1450 Microbeta scintillation counter (Wallac, Turku, Finland). The amounts of secreted IL-2 and IFN-γ were determined by commercial ELISA, following the manufacturer's instructions (R & D Systems). […]
Letal signaling increases glucose transporter expression and glucose uptake during T-cell activation. […] To test whether Letal may have a similar effect during T-cell activation, peripheral CD8^+ T-cells were stimulated for 20 hr with anti-CD3, anti-CD3/anti-CD28, anti-CD3/Letal, or Letal alone and the expression of the glucose transporter Glut-1 was analyzed by flow cytometry. […]

[3] = system: peripheral CD8^+ T-cells; experiment: Cisplatin-induced apoptosis of pre-stimulated CD8+ lymphocytes, annexin-V; conditions: pre-stimulated 3 days; 50 μM cisplatin for 17 hr
Protocol: (§1) Apoptosis assay. The percentage of apoptotic cells was determined after 17 h incubation with 50 μM cisplatin or 18 hs exposure to 0.1 μg/ml anti-CD95 mAb (EOS9.1; Pharmingen) by using the TACS annexin-V apoptosis detection kit, according to the manufacturer's instructions (R & D Systems). Fas expression was determined by flow cytometry by using EOS9.1 as a primary Ab and a PE-labeled anti-mouse IgM (R6-60.2; Pharmingen) as a second Ab.
Cytotoxic chemotherapy can, however, deplete tumor-specific effector T-cells (Lee et al, Nat. Med. 5:677-685 (1999)). Because the glycolytic pathway is implicated in lymphocyte survival (Plas et al, Nat. Immunol. 3:515-521 (2002)), a determination was made as to whether Letal could protect T-cells from early apoptotic death induced by genotoxic drugs.

[4] = system: CD8^+ lymphocytes; experiment: Anti-CD95 (EOS9.1) induced apoptosis of stimulated CD8+ lymphocytes, annexin-V; conditions: treated 4 days; anti-Fas Ab, after 18 h
Protocol: as §1
Letal engagement protects CD8^+ T-cells from FasL-induced apoptosis. […] Because ovarian carcinomas express FasL and other lymphocyte-depleting death ligands (Rabinowich et al, J. Clin. Invest. 101:2579-2588 (1998)), the prevalence of FasL expression and its impact on TILs was determined in 42 stage III ovarian carcinoma specimens. Strong FasL immunoreactivity was detected in tumor cells in areas of selected specimens (FIG. 10A), as well as in a proportion of stromal leukocytes. To test whether Letal promotes the generation of activated T-cell subpopulations that are able to resist the pro-apoptotic tumor microenvironment, peripheral CD8^+ T-cells were stimulated for 4 days with CD3/Letal, CD3/CD28, or anti-CD3 alone, and expression of Fas was measured by flow cytometry. […]

B1: Letal: MHC-I related transmembrane ligand for the NKG2D receptor, polypeptide of SEQ ID NO:8; tested as expressed on transduced cells (protein)
chain: GGHSLCFNFTIKSLSRPGQPWCEAQVFLNKNLFLQYNSDNNMVKPLGLLGKKVYATSTWGELTQTLGEVGRDLRMLLCDIKPQIKTSDPSTLQVEMFCQREAERCTGASWQFATNGEKSLLFDAMNMTWTVINHEASKIKETWKKDRGLEKYFRKLSKGDCDHWLREFLGHWEAMPEPTVSPVNASDIHWSSSSLPDRWIILGAFILLVLMGIVLICVWWQNGEWQAGLWPLRTS
killing of SKOV3 cells by NK effectors [1]: increased killing
Glut-1 expression [2]: dramatic induction
apoptosis after cisplatin [3]: markedly stronger protection
lymphocytes that resist apoptosis [4]: More than 25%
